Laboratory results published in US5914254.

Legend:
[1] = molecular target: 125I-radiolabeled IGF-I; assay: dot blot of serial dilutions of crude soluble fractions probed with 125I-IGF-I; tells of the amount of active protein, not of affinity
[2] = molecular target: insulin substrate
[3] = molecular target: native dsbA (with leader)-biotinylation peptide (pDM25453) (E. coli) (UniProt P0AEG4)

Oxidoreductase Activity of DsbA, Activity (U/min-mg), TEX fraction [2] [U/min-mg] | Substance | other results
 | DsbA-ubiquitin-IGFBP-3 fusion (pDM15427) (from UniProt P0AEG4) | fold increase in the recovery of bioactive IGFBP-3 (IGF-I binding activity of the crude extract, against the ubiquitin-IGFBP-3 fusion) [1]: 16 fold
0.089 | E. coli DsbA expressed with its leader sequence (pYZ9205) (from UniProt P0AEG4) (enzyme) | 
 | E. coli biotin holoenzyme synthetase (from UniProt P06709) | efficiency of in vivo biotinylation of the Ni-NTA purified proteins of pDM25450 and pDM25453 [3]: < 10 fold
0.1 | leaderless E. coli DsbA (pYZ9206) (from UniProt P0AEG4) (enzyme) | 
